This passage reports binding capacity and internalization results from patent publication US20150216998A1, “ENDO180-TARGETED PARTICLES FOR SELECTIVE DELIVERY OF THERAPEUTIC AND DIAGNOSTIC AGENTS” (QBI ENTERPRISES LTD., priority 2012, published 2015).

In experiment [1] the test system is ENDO180 expressing cell lines. The experiment in a line: FACS binding capacity screening, all tested ENDO180 expressing cell lines. Format: cell-based. The method, then: For binding analysis, 3.5×10^5 cells were trypsinized, spun down, re-suspended with FACS buffer (1% fetal bovine serum in 1×PBS), incubated for 30 minutes on ice with anti ENDO180 mAbs (1 μg) and washed with 1 ml FACS buffer. mAb samples were incubated with a secondary FITC conjugated goat anti mouse IgG antibody (115-095-072) (1:100, 150 μg/ml) in 50 μl of FACS buffer 30 minutes on ice, resuspended in 1 ml FACS buffer and analyzed using a FACS Calibur flow cytometer.
Cell lines which express different ENDO180 receptor levels were tested: NRK+ (a normal rat kidney), DU145^+ (a human prostate adenocarcinoma), LLC^+ (a mouse Lewis lung carcinoma), DU145^− and LLC^− (control cell lines, which are low expressors of ENDO180 receptor levels, i.e. express the PIRES Puro empty plasmid), A549 (human lung carcinoma) and CT26 (mouse colon carcinoma). NRK+, DU145^+ and LLC^+ stably express ENDO180 receptor levels. A549 and CT26 express naturally unknown levels of ENDO180 receptor. The binding capacity of the above cell lines was compared using 4 different Abs: mAb 8D8 clone, mAb10C12 clone, minibody (MB) and anti-wnt minibody (negative control).
A new batch was tested and the secondary Ab was changed (FITC conjugated goat anti mouse IgG F(ab)2 fragment, 115-095-072, Jackson Immunoresearch). The new MB batch was labeled directly with protein labeling kit.
In general terms: A flow cytometer gives signals particle by particle.

The next experiment relates to tested cell lines. Description: Internalization of anti-ENDO180 antibodies into the tested cell lines (confocal microscopy). In kind it is cell-based. Particulars: unconjugated Abs followed by secondary FITC goat anti mouse Ab. Here is the method: Internalization assays were performed in 24 well plates. 1×10^5 A549 or NRK-ENDO180 or NRK naive cells were seeded on cover slips in RPMI or DMEM medium respectively, supplemented with antibiotics, L-Glutamine and 10% fetal calf serum (Biological Industries, Beit Haemek, Israel).
For membrane staining, cells were stained with CellTracker™ DilC18 (5)-DS solution (Invitrogen, Carlsbad, Calif., USA), diluted 1:5000 with PBS. For cell membrane labeling, Concanavalin A, Alexa fluor 647 conjugate (10 μg/ml) (C21421, Invitrogen) was used. For nuclei staining, cells were stained with Hoechst (1:10,000 in PBS) (33258, Sigma). […] Subsequently, the cells were washed twice using cold PBS, fixated with 4% paraformaldehyde (PFA) and washed again with cold PBS. Membrane and nuclei staining were performed after fixation.
The cells were mounted using fluorescent mounting medium (Golden Bridge international, Mukilteo, Wash., USA) and fluorescence was measured using Andor Spinning disc confocal microscope and the Meta 510 Zeiss LSM confocal microscope. Laser beams at 405, 488, 561 and 650 nm were used for UV, Rhodamine, Concavaline A and CellTracker™, fluorophores excitation respectively. Serial optical sections of the cells were recorded for each treatment and the images were processed using Zeiss LSM Image browser software. […]

B1: MB: anti-ENDO180 scFv clone G7V, SEQ ID NO:6, also known as minibody (protein)
scFv: MKYLLPTAAAGLLLLAASGAHAQVQLVQSGGGLVKPGGSLRLSCAASGFTFSSYSMNWVRQAPGKGLEWVANIKPDGSERHSVDSVKGRFTISRDNSKNSLYLQMNSLRAEDTAVYYCARPGAGRLDYWGQGTLVTVSSGGGGSGGGGSGGGGSNFMLTQDAAVSVALGQTVRITCQGDSLRSYYASWYQQKPGQAPVLVVYGKNNRPSGIPDRFSGSSSGNTASLTITGAQAEDEADYYCNSRDSSGNPWAFGGGTKVTVLASGKPIPNPLLGLDSTHHHHHH
modifications: Polypeptide encoded by SEQ ID NO:5
Take B1: the binding capacity result in experiment [1] (all of the tested cell lines, first batch, secondary FITC Ab) was “weak binding capacity”; in experiment [1] (new batch, labeled directly with protein labeling kit, FIGS. 4A-D), “No significant improvement in binding capacity”. Also, in the experiment on tested cell lines, the internalization result is “no internalization”.
